Series [1] deals with T1, murine β-Klotho and FGF receptor 1 (Mus musculus, UniProt P16092+Q99N32).
T1 construct: expressed in transfected cells; host or cells: HEK293
The series is described as follows: ERK phosphorylation assay (FGF21 receptor agonism, HEK293 cells). The series is classed as cell-based. Conditions: compared to native FGF21. The method, then:
ERK phosphorylation assay: For quantitative evaluation of FGF21 in vitro activity, a HEK293 cell line was previously generated that stably expresses murine β-Klotho and FGF receptor 1 and thereby enables FGF21-mediated ERK1/2 phosphorylation. Cells were seeded at 5×10^4 cells/cm^2 and adhered overnight. After serum starvation for 6 h, cells were treated with serial dilutions of FGF21-containing fusion proteins or native mouse FGF21 (ProSpec-Tany, East Brunswick, N.J.) for 5 min. Cells were lysed and assessed for phospho-ERK1/2 and total ERK1/2 content using the AlphaLISA Surefire Ultra Assay Kits (PerkinElmer) and the EnSpire Alpha Plate Reader (PerkinElmer). Phospho-ERK1/2 was normalized to total ERK1/2 and fit to a three-parameter dose-response curve to determine EC50s using GraphPad Prism 8 software (La Jolla, Calif.).

Series [2] concerns db/db mice. The series is described as follows: Chronic dosing study, weekly s.c. for four weeks (GTT, % HbA1c, body weight, food intake). The series is classed as in vivo. The protocol:
(§1) Animals: In vivo studies were conducted in accordance with the AAALAC-accredited Duke Institutional Animal Care and Use Committee. 5-week-old B6.BKS(D)-Lepr^db/J (“db/db”) male mice were purchased from Jackson Laboratory (Bar Harbor, Me.) and maintained on a 12 h/12 h light/dark cycle with ad libitum access to food (LabDiet 5053) and water. Animals were group-housed and allowed 1-week acclimation before stratification into control and treatment groups based on baseline ambient blood glucose levels and body weights.
(§2) ELP fusion treatments: ELP fusion proteins were administered at 150-200 μM concentration via injection into the subcutaneous (s.c.) space on the hind flank. Animals received either a single s.c. injection for short-term studies or weekly s.c. injections for chronic studies. The “1:1 mixture” treatment group received a single injection containing an equimolar mixture of GLP1-ELP and ELP-FGF21, with the indicated dose referring to the dose of each respective fusion in the mixture. Vehicle control refers to PBS.
Food Intake: For food intake studies, animals were group-housed 4 per cage, and food pellets were weighed every 1-2 days. Total cage food intake was calculated for each time increment, averaged per animal, and summed over the course of the study to yield a cumulative food intake per mouse. N=8 treatment groups were divided into 2 cages, allowing for an n=2 food intake standard error calculation.

A short description of series [3]: Pharmacokinetic study of radiolabeled ELP fusion depots after s.c. injection. Conditions: component of 1:1 mixed depot, 1000 nmol/kg each. The series is classed as in vivo, mice. The method, then: Pharmacokinetic studies: Tyrosine residues on GLP1-ELP, ELP-FGF21, or GLP1-ELP-FGF21 fusion proteins were reacted with Na^125I radionuclide (Perkin Elmer) using Pierce Pre-Coated Iodination Tubes (Thermo Fisher Scientific) and the indirect method for iodination. Radiolabeled protein was purified from unreacted radionuclide with Zeba Spin Desalting Columns (Thermo Fisher Scientific). Activities of radiolabeled constructs were measured with an Atomlab 400 Dose Calibrator (Biodex, Shirley, N.Y.) and correlated to protein concentration. Mice received a single s.c. injection of radiolabeled fusion, and 10 μL blood samples were collected at frequent time points from the tail vein and stored at room temperature until radioactivity quantification. Sample counts were measured at the end of the study on a Wallac Wizard 1480 Automatic Gamma Counter (Perkin Elmer). An activity vs. count standard curve was used to convert sample counts to activities, and subsequently to moles of drug.
Pharmacokinetic analysis: The maximum serum concentration (Cmax) was recorded as observed, as well as time to reach Cmax (tmax). […] Absorption half-life (t1/2, abs) was estimated from the slope of the linear regression curve. When a drug administered at an extravascular site yields a terminal half-life greater than that resulting from an i.v. bolus, the terminal half-life reflects the absorption half-life.

Series [4] has as its system db/db mice. The series is described as follows: Short-term co-treatment pilot study, 48 h after single s.c. injection. Conditions: 48 h post-injection, 1000 nmol/kg s.c. The series is classed as in vivo. The protocol:
as §1, §2
Ambient blood glucose measurements: Blood glucose levels were measured from a tail vein puncture with an AlphaTRAK 2 Blood Glucose Meter (Zoetis, Parsippany-Troy Hills, N.J.) every 24 h, 1-2 h following onset of the light cycle. […] Areas under the curve (AUCs) were calculated with GraphPad Prism 8 software using the trapezoidal rule and setting a Y=0 baseline. […]

A value given as a limit tells only on which side of the number the result lay.

T1 sequence (Q99N32 whole entry): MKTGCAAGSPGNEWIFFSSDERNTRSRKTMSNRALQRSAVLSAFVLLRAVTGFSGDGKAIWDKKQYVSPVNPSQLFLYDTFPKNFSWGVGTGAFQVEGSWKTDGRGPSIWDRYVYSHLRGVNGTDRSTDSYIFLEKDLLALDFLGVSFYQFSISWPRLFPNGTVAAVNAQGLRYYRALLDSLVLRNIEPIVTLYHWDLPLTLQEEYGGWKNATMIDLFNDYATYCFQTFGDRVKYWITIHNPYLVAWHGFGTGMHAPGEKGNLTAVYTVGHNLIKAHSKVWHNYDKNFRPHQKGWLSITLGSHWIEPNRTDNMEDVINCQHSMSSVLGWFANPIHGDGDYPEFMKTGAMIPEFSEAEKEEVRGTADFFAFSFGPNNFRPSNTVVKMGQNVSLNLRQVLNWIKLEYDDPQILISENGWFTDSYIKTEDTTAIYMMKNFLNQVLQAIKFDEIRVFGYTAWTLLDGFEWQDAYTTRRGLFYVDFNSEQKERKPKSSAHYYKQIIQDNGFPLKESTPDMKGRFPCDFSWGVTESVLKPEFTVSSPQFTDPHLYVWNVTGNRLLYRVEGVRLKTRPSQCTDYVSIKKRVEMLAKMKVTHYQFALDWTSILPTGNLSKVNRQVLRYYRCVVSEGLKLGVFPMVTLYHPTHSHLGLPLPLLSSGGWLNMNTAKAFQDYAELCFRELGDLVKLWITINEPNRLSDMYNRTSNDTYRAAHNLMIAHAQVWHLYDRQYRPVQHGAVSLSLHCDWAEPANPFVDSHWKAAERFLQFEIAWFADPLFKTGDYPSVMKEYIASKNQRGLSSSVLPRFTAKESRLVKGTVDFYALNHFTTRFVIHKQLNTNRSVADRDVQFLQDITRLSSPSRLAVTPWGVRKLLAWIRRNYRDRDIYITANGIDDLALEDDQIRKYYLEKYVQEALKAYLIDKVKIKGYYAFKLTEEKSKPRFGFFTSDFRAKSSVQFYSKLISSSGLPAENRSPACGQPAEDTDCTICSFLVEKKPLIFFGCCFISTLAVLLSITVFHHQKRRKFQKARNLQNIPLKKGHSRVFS
T1 sequence (P16092 22-822): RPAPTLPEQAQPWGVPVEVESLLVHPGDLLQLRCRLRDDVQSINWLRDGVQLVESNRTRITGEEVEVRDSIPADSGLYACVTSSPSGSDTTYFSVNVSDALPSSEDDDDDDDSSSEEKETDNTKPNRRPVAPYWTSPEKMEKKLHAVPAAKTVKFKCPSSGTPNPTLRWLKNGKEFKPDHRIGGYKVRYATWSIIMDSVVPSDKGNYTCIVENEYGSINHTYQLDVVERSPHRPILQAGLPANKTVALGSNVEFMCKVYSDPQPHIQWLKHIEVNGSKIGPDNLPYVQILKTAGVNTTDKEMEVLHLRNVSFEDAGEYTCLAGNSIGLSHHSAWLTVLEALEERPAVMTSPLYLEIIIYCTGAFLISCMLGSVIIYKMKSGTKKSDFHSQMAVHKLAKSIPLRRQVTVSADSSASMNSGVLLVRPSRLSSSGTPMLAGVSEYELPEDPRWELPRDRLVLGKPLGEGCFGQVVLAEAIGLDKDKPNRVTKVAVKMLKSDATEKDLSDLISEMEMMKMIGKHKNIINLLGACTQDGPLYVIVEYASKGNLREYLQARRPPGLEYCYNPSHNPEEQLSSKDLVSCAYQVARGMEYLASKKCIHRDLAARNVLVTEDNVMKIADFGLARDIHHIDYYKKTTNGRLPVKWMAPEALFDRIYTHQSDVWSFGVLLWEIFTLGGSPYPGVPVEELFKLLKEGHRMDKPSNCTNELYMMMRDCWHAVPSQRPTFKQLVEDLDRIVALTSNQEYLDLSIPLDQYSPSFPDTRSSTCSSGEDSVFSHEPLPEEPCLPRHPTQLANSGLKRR

B1: ELP-FGF21: Single agonist control: ELP (120 repeats, 4:1 Val:Ala) fused to mutated murine FGF21; SEQ ID NO:14 (protein)
chain: GVGVPGVGVPGAGVPGVGVPGVGVPGVGVPGVGVPGAGVPGVGVPGVGVPGVGVPGVGVPGAGVPGVGVPGVGVPGVGVPGVGVPGAGVPGVGVPGVGVPGVGVPGVGVPGAGVPGVGVPGVGVPGVGVPGVGVPGAGVPGVGVPGVGVPGVGVPGVGVPGAGVPGVGVPGVGVPGVGVPGVGVPGAGVPGVGVPGVGVPGVGVPGVGVPGAGVPGVGVPGVGVPGVGVPGVGVPGAGVPGVGVPGVGVPGVGVPGVGVPGAGVPGVGVPGVGVPGVGVPGVGVPGAGVPGVGVPGVGVPGVGVPGVGVPGAGVPGVGVPGVGVPGVGVPGVGVPGAGVPGVGVPGVGVPGVGVPGVGVPGAGVPGVGVPGVGVPGVGVPGVGVPGAGVPGVGVPGVGVPGVGVPGVGVPGAGVPGVGVPGVGVPGVGVPGVGVPGAGVPGVGVPGVGVPGVGVPGVGVPGAGVPGVGVPGVGVPGVGVPGVGVPGAGVPGVGVPGVGVPGVGVPGVGVPGAGVPGVGVPGVGVPGVGVPGVGVPGAGVPGVGVPGVGVPGVGVPGVGVPGAGVPGVGVPGVGVPGVGVPGVGVPGAGVPGVGVPGVGVPGAYPIPDSSPLLQFGGQVRQRYLYTDDDQDTEAHLEIREDGTVVGAAHRSPESLLELKALKPGVIQILGVKASRFLCQQPDGALYGSPHFDPEACSFRERLLEDGYNVYQSEAHGLPLRLPQKDSPNQDATSWGPVRFLPMPGLLHEPQDQAGFLPPEPPDVGSSDPLSMVEGSQGRSPSYASG
Regarding B1, the “increase in FGF21 receptor EC50 on fusion of FGF21 to an ELP” value in series [1] is reported as “approximately twenty-fold”. Moreover, in series [2] (5 h fast, 3 days after the first dosing cycle, 1000 nmol/kg s.c.), the “fasting blood glucose levels” value worked out at 237 ± 21 mg/dL. Besides, in series [2] (four-week study), the “% HbA1c elevation relative to control” value is reported as “significantly reduced % HbA1c elevation relative to control”. Also, the “effect on body weight / weight gain compared to vehicle” value in series [2] (four-week treatment period) is reported as “did not induce a significant effect on body weight”. In addition, the “GTT AUC” value in series [2] (i.p. glucose tolerance test 3 days after the first dosing cycle) is reported as “significantly decreased GTT AUC compared to vehicle”. Also, the fasting plasma insulin result in series [2] (prior to glucose challenge, 3 days after the first dosing cycle) is on record as “equivalent levels of fasting plasma insulin”. Further, the “day by which plasma levels dropped below 100 nM” value in series [3] is at most 4 days. Also, the “body weight, % change from pre-injection weight” value in series [4] was −0.9±0.3%.

For the origin of these results see patent US11649275B2, “Dual agonist fusion proteins” (Duke University, priority 2018, dated 2023).
